From PMC2720046 (Science (New York, N.Y.), 2008)
Values belong to the molecule of their own block, whether it stands above or below them.

Columns and labels:
CEP55-EABR [1] = format: binding; conditions: pull-down by GST-ALIX fragment with TSG101 peptide competitor
[2] = target: T1, CEP55-EABR (residues 160−217) (Homo sapiens, UniProt Q53EZ4); assay: ITC titration of peptide into CEP55-EABR solution; format: binding; conditions: compared with ALIX peptide
T1 sequence (Q53EZ4 160-217): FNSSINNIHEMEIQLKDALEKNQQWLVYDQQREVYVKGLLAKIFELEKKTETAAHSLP

CEP55-EABR [3] = assay: Analytical ultracentrifugation of CEP55-EABR to peptide mixtures; format: binding; conditions: TSG101 peptide added to preformed 2:1 CEP55:ALIX peptide complex
midbodies in HeLa cells = assay: Midbody localization of wild-type and mutant GFP-ALIX expressed in HeLa cells; format: cell-based; conditions: full-length GFP-tagged ALIX, α−tubulin staining
ALIX 797-809 = target: T2, ALIX 797-809 (Homo sapiens, UniProt Q8WUM4); assay: ITC
T2 chain: QAQGPPYPTYPGY

TSG101 154-166 = target: T3, TSG101 154-166 (Homo sapiens, UniProt Q99816); assay: ITC
T3 chain: QATGPPNTSYMPG

Molecule: TSG101 peptide: related TSG101 peptide (residues 154 to 166) (QATGPPNTSYMPG; UniProt Q99816 154-166, looked up, fragment)
competition for CEP55-EABR binding site (CEP55-EABR [1]): the two peptides interact with the same site
affinity relative to ALIX peptide [2]: essentially the same affinity and stoichiometry
competition with ALIX peptide for CEP55 site (CEP55-EABR [3]): a peak corresponding to the equivalent amount of uncomplexed peptide is formed, suggesting that TSG101 and ALIX compete for the same site

B1: ALIX^Y806A: full-length ALIX mutant tagged with GFP (protein, UniProt Q8WUM4 1-868, looked up, variant Y806A)
chain: MATFISVQLKKTSEVDLAKPLVKFIQQTYPSGGEEQAQYCRAAEELSKLRRAAVGRPLDKHEGALETLLRYYDQICSIEPKFPFSENQICLTFTWKDAFDKGSLFGGSVKLALASLGYEKSCVLFNCAALASQIAAEQNLDNDEGLKIAAKHYQFASGAFLHIKETVLSALSREPTVDISPDTVGTLSLIMLAQAQEVFFLKATRDKMKDAIIAKLANQAADYFGDAFKQCQYKDTLPKEVFPVLAAKHCIMQANAEYHQSILAKQQKKFGEEIARLQHAAELIKTVASRYDEYVNVKDFSDKINRALAAAKKDNDFIYHDRVPDLKDLDPIGKATLVKSTPVNVPISQKFTDLFEKMVPVSVQQSLAAYNQRKADLVNRSIAQMREATTLANGVLASLNLPAAIEDVSGDTVPQSILTKSRSVIEQGGIQTVDQLIKELPELLQRNREILDESLRLLDEEEATDNDLRAKFKERWQRTPSNELYKPLRAEGTNFRTVLDKAVQADGQVKECYQSHRDTIVLLCKPEPELNAAIPSANPAKTMQGSEVVNVLKSLLSNLDEVKKEREGLENDLKSVNFDMTSKFLTALAQDGVINEEALSVTELDRVYGGLTTKVQESLKKQEGLLKNIQVSHQEFSKMKQSNNEANLREEVLKNLATAYDNFVELVANLKEGTKFYNELTEILVRFQNKCSDIVFARKTERDELLKDLQQSIAREPSAPSIPTPAYQSSPAGGHAPTPPTPAPRTMPPTKPQPPARPPPPVLPANRAPSATAPSPVGAGTAAPAPSQTPGSAPPPQAQGPPYPTAPGYPGYCQMPMPMGYNPYAYGQYNMPYPPVYHQSPGQAPYPGPQQPSYPFPQPPQQSYYPQQ
modifications: full-length GFP fusion
midbody localization of GFP-ALIX (midbodies in HeLa cells): no midbody localization above background

B2: wild-type ALIX: full-length wild-type ALIX tagged with GFP (protein, UniProt Q8WUM4 1-868, looked up)
chain: MATFISVQLKKTSEVDLAKPLVKFIQQTYPSGGEEQAQYCRAAEELSKLRRAAVGRPLDKHEGALETLLRYYDQICSIEPKFPFSENQICLTFTWKDAFDKGSLFGGSVKLALASLGYEKSCVLFNCAALASQIAAEQNLDNDEGLKIAAKHYQFASGAFLHIKETVLSALSREPTVDISPDTVGTLSLIMLAQAQEVFFLKATRDKMKDAIIAKLANQAADYFGDAFKQCQYKDTLPKEVFPVLAAKHCIMQANAEYHQSILAKQQKKFGEEIARLQHAAELIKTVASRYDEYVNVKDFSDKINRALAAAKKDNDFIYHDRVPDLKDLDPIGKATLVKSTPVNVPISQKFTDLFEKMVPVSVQQSLAAYNQRKADLVNRSIAQMREATTLANGVLASLNLPAAIEDVSGDTVPQSILTKSRSVIEQGGIQTVDQLIKELPELLQRNREILDESLRLLDEEEATDNDLRAKFKERWQRTPSNELYKPLRAEGTNFRTVLDKAVQADGQVKECYQSHRDTIVLLCKPEPELNAAIPSANPAKTMQGSEVVNVLKSLLSNLDEVKKEREGLENDLKSVNFDMTSKFLTALAQDGVINEEALSVTELDRVYGGLTTKVQESLKKQEGLLKNIQVSHQEFSKMKQSNNEANLREEVLKNLATAYDNFVELVANLKEGTKFYNELTEILVRFQNKCSDIVFARKTERDELLKDLQQSIAREPSAPSIPTPAYQSSPAGGHAPTPPTPAPRTMPPTKPQPPARPPPPVLPANRAPSATAPSPVGAGTAAPAPSQTPGSAPPPQAQGPPYPTYPGYPGYCQMPMPMGYNPYAYGQYNMPYPPVYHQSPGQAPYPGPQQPSYPFPQPPQQSYYPQQ
modifications: full-length GFP fusion
midbody localization of GFP-ALIX (midbodies in HeLa cells): strongly localized to midbodies

Kd (ALIX 797-809): 1000 nM
Kd (TSG101 154-166): ~1000 nM
B3: CEP55 160-217 (protein)
chain: FNSSINNIHEMEIQLKDALEKNQQWLVYDQQREVYVKGLLAKIFELEKKTETAAHSLP
